Reference: paper PMC6770254
Values joined by “and” are separate entries in the source; they are usually repeats but may differ in a detail not shown here. Equal values may be shown once. One block for each substance: values may come before it.

How the values were obtained:
Assay in all cases: crystal structure; crystals from 2.2 M DL-malic acid, pH 6.5, with or without 5 mM PPi (hanging drop); data at 100 K; oligomers read from the asymmetric unit and the crystal packing
[1] = target: Acinetobacter baumannii pyrophosphatase K30R variant (Acinetobacter baumannii) (UniProt V5VHL7)
[2] = target: Acinetobacter baumannii pyrophosphatase K149R variant (Acinetobacter baumannii) (UniProt V5VHL7)
[3] = target: Acinetobacter baumannii pyrophosphatase, wild type (Acinetobacter baumannii) (UniProt V5VHL7)

Substance: Acinetobacter baumannii pyrophosphatase K30R variant (from UniProt V5VHL7 5-174) (enzyme)
stoichiometry N [1]: 6 and 3

Substance: Acinetobacter baumannii pyrophosphatase K149R variant (from UniProt V5VHL7 5-174) (enzyme)
stoichiometry N [2]: 6

stoichiometry N [3]: 6
Substance: Acinetobacter baumannii pyrophosphatase, wild type (from UniProt V5VHL7 5-174) (enzyme)
